Reference: paper PMC11301353 (iScience, 2024)

Experiments:
Assay in all cases: site-directed spin labelling EPR
[1] = target: SET/TAF-Iβ D260C mutant, MTSL spin-labelled (UniProt Q01105-2 1-277, D260C, MTSL nitroxide spin label on Cys260)
[2] = target: SET/TAF-Iβ D226C mutant, MTSL spin-labelled (UniProt Q01105-2 1-277, D226C, MTSL nitroxide spin label on Cys226)
[3] = target: SET/TAF-Iβ E243C mutant, MTSL spin-labelled (UniProt Q01105-2 1-277, E243C, MTSL nitroxide spin label on Cys243)

Measured: binding result

B1: wild-type cytochrome c (natural protein)
chain: not shown
modifications: heme group (assembled by co-expressed yeast heme lyase); reduced state in ITC and EPR
binds: all assays above
